Where a chain is given by its changes, count along the chain named. Names may count otherwise.

As usually defined, the EC50 is the midpoint of the concentration-response curve. The term IC50 denotes the point on the concentration scale where inhibition reaches its midpoint. As usually defined, the Kd is the free concentration of one partner at which half of the binding sites on the other are occupied at equilibrium, for simple one-to-one binding. By koff is commonly meant the first-order rate constant of dissociation. One may read the kon as a measure of how fast the partners come together.

Test [1] has as its target T1, human NKG2A on cells (human, UniProt P26715 1-233).
T1 construct: also called hNKG2A; CHO-hNKG2A
The test is described as follows: flow cytometry on NKL cells (endogenous human NKG2A), anti-human IgG-PE. Background: Flow cytometry measures light scatter and fluorescence of single cells or particles in a stream.
Method: Cells were washed and stained with fluorescently labeled goat anti-human IgG-PE secondary antibody for 30 minutes at 4° C. to detect the bound antibody on the cell surface. Cells were read fresh on the BD LSRFortessa.

Test [2] has as its target T1, human NKG2A on cells. The test is described as follows: flow cytometry, blocking of labelled HLA-E pentamer on NKL cells.
The target of test [3] is T1, human NKG2A on cells. Nature of the test: flow cytometry, blocking of labelled HLA-E pentamer on CHO cells expressing human NKG2A.
Method: As depicted in FIG. 20A, 1×10⁶ human NKG2A-expressing CHO cells were incubated with titrating amounts of anti-NKG2A antibody (10 ug/ml) for 30 minutes at 4° C. […] Cells were read fresh on the BD LSRFortessa.
Test [4] addresses T1, human NKG2A on cells. Nature of the test: flow cytometry on CHO cells expressing human NKG2A, anti-human IgG-PE.
In test [5] the target is T2, human NKG2C on CHO cells (human, UniProt P26717 1-231).
T2 construct: also called CHO-human NKG2C; hNKG2C
Nature of the test: FACS on CHO cells engineered to express human NKG2C-CD94.

For test [6], the target named is T3, cynomolgus monkey NKG2A on cells (cynomolgus monkey, UniProt Q68VD2 1-233).
T3 construct: whole, on cells; On transfected CHO cells or on NK cells of cynomolgus PBMC / blood; also called CHO-cyno NKG2A; CHO-cynomolgus NKG2A
The test is described as follows: flow cytometry on CHO cells expressing cynomolgus NKG2A.
Method: The ability of anti-NKG2A antibodies that bound to cynomolgus NKG2A-expressing CHO cells was assessed. As depicted in FIG. 22A, 1×10⁶ cynomolgus NKG2A-expressing CHO cells were incubated with titrating amounts of anti-NKG2A antibody (10 ug/ml) 10 for 30 minutes at 4° C. […] Cells were read fresh on the BD LSRFortessa.

Test [7] has as its target T4, human NKG2A-CD94 heterodimer (extracellular domains) (human, UniProt Q13241 32-179).
T4 construct: extracellular domain; also called hNKG2A-heterodimer; hNKG2A-hCD94
The test is described as follows: SPR Biacore T200, 37 °C, antibody captured by anti-human Fc on C1 chip, hNKG2A-hCD94 as analyte. (In general: SPR reads the build-up and loss of mass on a sensor chip optically.)

The target in test [8] is T1, human NKG2A on cells. Nature of the test: flow cytometry on CHO cells expressing human NKG2A.
In test [9] the target is T4, human NKG2A-CD94 heterodimer …. Nature of the test: SPR Biacore T200, 37 °C, antibody captured by anti-hFc on CM4 chip, heterodimer as analyte.
From the text: (§1) All data were double-referenced and fitted to a 1:1 binding model using the Biacore T200 Evaluation Software version 3.1.
For test [10], the target named is T5, human NKG2C-CD94 heterodimer (extracellular domains) (human, UniProt Q13241 32-179).
T5 construct: extracellular domain; also called hNKG2C-heterodimer; hNKG2C-CD94
The test is described as above.
From the text: as §1

Test [11] concerns the target T6, cynomolgus NKG2A-CD94-mFc (cynomolgus monkey, UniProt Q68VD2 94-233).
T6 construct: also called monkey NKG2A-CD94-mFc (truncated construct); cyNKG2A-CD94; not shown: mouse Fc
The test is described as follows: SPR Biacore T200, 37 °C, Fab as analyte over NKG2A-CD94-mFc immobilized on CM4 chip.

In test [12] the target is T2, human NKG2C on CHO cells. The test is described as follows: flow cytometry, blocking of HLA-E pentamer binding to CHO cells expressing human NKG2C.
Test [13] addresses T2, human NKG2C on CHO cells. Nature of the test: flow cytometry, binding to CHO cells expressing human NKG2C, anti-human IgG-PE.
Method: As depicted in FIG. 18A, 1×10⁶ human NKG2A-expressing or human NKG2C-expressing CHO cells were incubated with titrating amounts of anti-NKG2A antibody for 30 minutes at 4° C. Cells were washed and stained with fluorescently labeled goat anti-human IgG-PE secondary antibody for 30 minutes at 4° C. to detect the bound antibody on the cell surface. Cells were read fresh on the BD LSRFortessa.
In test [14] the target is T1, human NKG2A on cells. The test is described as follows: flow cytometry, blocking of HLA-E pentamer binding to CHO cells expressing human NKG2A.

T1 sequence (P26715 whole entry): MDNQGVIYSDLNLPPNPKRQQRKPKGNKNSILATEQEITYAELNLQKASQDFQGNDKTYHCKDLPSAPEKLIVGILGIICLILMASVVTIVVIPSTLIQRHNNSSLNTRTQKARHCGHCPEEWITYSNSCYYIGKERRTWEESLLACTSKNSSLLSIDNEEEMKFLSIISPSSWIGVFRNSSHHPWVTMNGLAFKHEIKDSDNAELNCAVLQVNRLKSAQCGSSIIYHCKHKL
T2 sequence (P26717 other isoform, or with tags, fused parts or gaps): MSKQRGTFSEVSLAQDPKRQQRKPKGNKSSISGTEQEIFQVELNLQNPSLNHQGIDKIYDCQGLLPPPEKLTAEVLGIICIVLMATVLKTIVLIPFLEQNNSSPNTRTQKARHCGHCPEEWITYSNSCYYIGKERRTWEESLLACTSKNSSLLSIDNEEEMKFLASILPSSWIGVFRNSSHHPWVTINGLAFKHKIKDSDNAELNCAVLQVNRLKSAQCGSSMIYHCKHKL
T4 sequence (chain, as listed by the source, chain 1 of 2): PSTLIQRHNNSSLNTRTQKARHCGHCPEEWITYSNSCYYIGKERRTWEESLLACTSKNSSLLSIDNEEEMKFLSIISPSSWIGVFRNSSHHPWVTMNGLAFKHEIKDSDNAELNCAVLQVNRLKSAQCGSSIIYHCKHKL
T4 sequence (Q13241 32-179, chain 2 of 2): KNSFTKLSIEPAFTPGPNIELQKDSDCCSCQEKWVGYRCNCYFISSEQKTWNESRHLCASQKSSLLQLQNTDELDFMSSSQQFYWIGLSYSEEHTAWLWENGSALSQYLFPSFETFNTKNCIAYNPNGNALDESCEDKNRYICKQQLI
T3 sequence (Q68VD2 entry or part of it): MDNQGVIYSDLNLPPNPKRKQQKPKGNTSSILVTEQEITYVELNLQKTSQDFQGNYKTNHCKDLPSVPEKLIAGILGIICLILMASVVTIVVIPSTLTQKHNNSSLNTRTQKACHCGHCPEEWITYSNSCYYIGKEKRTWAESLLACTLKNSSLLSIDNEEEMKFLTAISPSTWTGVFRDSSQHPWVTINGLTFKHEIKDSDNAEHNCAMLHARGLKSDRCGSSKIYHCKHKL
T5 sequence (chain, as listed by the source, chain 1 of 2): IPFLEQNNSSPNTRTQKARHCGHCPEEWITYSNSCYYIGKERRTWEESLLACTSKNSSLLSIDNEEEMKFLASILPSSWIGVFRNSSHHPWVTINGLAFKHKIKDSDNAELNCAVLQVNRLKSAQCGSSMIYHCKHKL
T5 sequence (Q13241 32-179, chain 2 of 2): as the sequence (Q13241 32-179, chain 2 of 2) above
T6 sequence (Q68VD2 entry or part of it): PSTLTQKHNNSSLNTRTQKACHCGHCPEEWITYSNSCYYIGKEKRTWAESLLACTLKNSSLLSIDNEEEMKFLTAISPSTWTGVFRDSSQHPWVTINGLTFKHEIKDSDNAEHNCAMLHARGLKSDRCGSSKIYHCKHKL

B1: 1G5.B2 antibody (antibody, human IgG1, kappa, V domains shown)
VH: QVQLVESGGGVVQPGRSLRLSCAASGFTFSDYAMHWVRQTPGRGLEWLTFISYDGSNKYHADSVKGRFTISRDNSKNTLFLQMNSLRAEDTAVYYCARDSWDRGYFDLWGRGTLVTVSS
VL: EIVLTQSPATLSLSPGERATLSCRASQSVSSYLAWYQQKPGQAPRLLIYDASNRATGIPARFSGSGSGTDFTLTISSLEPEDFAVYYCQQRSNWWTFGQGTKVEIKR
notes: Hybridoma antibody; printed as IG5.B2 in two paragraphs; also called IG5.B2
In the case of B1, the EC50 turned out to be 0.3 nM in test [1] and 0.6 nM in [4]. The IC50 was determined as 0.4 nM in test [2] and 0.7 nM in [3].

B2: P1-069366 antibody (antibody, V domains shown)
VH: QVQLVESGGGVVQPGRSLRLSCAASGFTFSSYAMHWVRQAPGKGLEWVAVISYDGSYKEYADSVKGRFTISRDSSKNTLYLQMNSLRAEDTAVYYCARAQISEYFDYWGQGTLVTVSS
VL: DIQMTQSPSSLSASVGDRVTITCRASQGISSWLAWYQQKPEKAPKSLIYAASSLQSGVPSRFSGSGSGTDFTLTISSLQPEDFATYYCQQYNSYPLTFGQGTKVEIKR
notes: From the immune antibody library (yeast display); also called P10069366
With B2, the binding result in test [5] is reported as “no binding”.

B3: NKG2A.11 antibody (antibody, human IgG1, kappa)
heavy: EVQLVESGGGLVKPGGSLRLSCAASGFTFSSHSMNWVRQAPGKGLEWVSAISSSSSYIYYADSVKGRFTISRDNAKNSLYLQMNSLRAEDTAVYYCAREEWGLPFDYWGQGTLVTVSSASTKGPSVFPLAPSSKSTSGGTAALGCLVKDYFPEPVTVSWNSGALTSGVHTFPAVLQSSGLYSLSSVVTVPSSSLGTQTYICNVNHKPSNTKVDKRVEPKSCDKTHTCPPCPAPEAEGAPSVFLFPPKPKDTLMISRTPEVTCVVVDVSHEDPEVKFNWYVDGVEVHNAKTKPREEQYNSTYRVVSVLTVLHQDWLNGKEYKCKVSNKALPAPIEKTISKAKGQPREPQVYTLPPSREEMTKNQVSLTCLVKGFYPSDIAVEWESNGQPENNYKTTPPVLDSDGSFFLYSKLTVDKSRWQQGNVFSCSVMHEALHNHYTQKSLSLSPG
light: AIQLTQSPSSLSASVGDRVTITCRASQGIPSALAWYQQKPGKAPKLLIYDASSLKSGVPSRFSGSGSGTDFTLTISSLQPEDFATYYCQQFNSYPLTFGQGTRLEIKRTVAAPSVFIFPPSDEQLKSGTASVVCLLNNFYPREAKVQWKVDNALQSGNSQESVTEQDSKDSTYSLSSTLTLSKADYEKHKVYACEVTHQGLSSPVTKSFNRGEC
notes: Human IgG1.3f, kappa; also called 13F3.A4 VH I107T, VK N30P; 13F3 VH I107T VK N30P
B3 yielded an EC50 in test [6] of 1.4 nM.

B4: monalizumab (antibody, V domains shown)
VH: QVQLVQSGAEVKKPGASVKVSCKASGYTFTSYWMNWVRQAPGQGLEWMGRIDPYDSETHYAQKLQGRVTMTTDTSTSTAYMELRSLRSDDTAVYYCARGGYDFDVGTLYWFFDVWGQGTTVTVSS
VL: DIQMTQSPSSLSASVGDRVTITCRASENIYSYLAWYQQKPGKAPKLLIYNAKTLAEGVPSRFSGSGSGTDFTLTISSLQPEDFATYYCQHHYGTPRTFGGGTKVEIKR
With B4, in test [7], the “Half-life of Antibody/Analyte Complex” value lay in the range of 3 to 4 s; the affinity, expressed as Kd, was 26 nM; the koff came out at 0.2 s⁻¹; the kon worked out at 7e+06 M⁻¹ s⁻¹.

B5: 2G6.C2 antibody (antibody, human IgG1, kappa, V domains shown)
VH: EVQLVESGGGLVQRGGSLRLSCAASGFTFSSNSMNWIRQAPGKGLEWVAHISSGSSFIYYADSVKGRFTISRDNAKNSLSLQMNSLRDEDTAVYYCARDDWGIDAFNIWGQGTMVTVSS
VL: EIVLTQSPATLSLSPGERATLSCRASQSVSSSLAWYQQKPGQAPRLLIYDASNRATGIPARFSGSGSGTDFTLTISSLEPEDFAVYYCQQRSNWIFTFGPGTKVDIKR
notes: Hybridoma antibody
For the molecule B5, the midpoint of the response in test [6], the EC50, lay at 0.6 nM. This molecule also registered an EC50 in test [8] of 1 nM. For the same molecule, in [9], the “Half-life of Antibody/Analyte Complex” value was determined as 19 s, the Kd amounted to 91 nM, the koff turned out to be 0.036 s⁻¹ and the on-rate constant (kon) was determined as 400000 M⁻¹ s⁻¹. Further, in test [10], the “Half-life of Antibody/Analyte Complex” value was 23 s, binding was characterised by a dissociation constant (Kd) of 1100 nM, the koff worked out at 0.03 s⁻¹ and the kon is 28000 M⁻¹ s⁻¹. The same molecule yielded a concentration for half-maximal inhibition (IC50) in test [3] of 1.3 nM.

B6: NKG2A.9 Fab (Fab, V domains shown)
VH: EVQLVESGGGLVKPGGSLRLSCAASGFTFSSHSMNWVRQAPGKGLEWVSAISSSSSYIYYADSVKGRFTISRDNAKNSLYLQMNSLRAEDTAVYYCAREEWGLPFDYWGQGTLVTVSS
VL: AIQLTQSPSSLSASVGDRVTITCRASQGISSALAWYQQKPGKAPKLLIYDASSLKSGVPSRFSGSGSGTDFTLTISSLQPEDFATYYCQQFNSYPLTFGQGTRLEIK
notes: Fab of NKG2A.9
For the molecule B6, in [11], the “KD ratio (cy/h)” value is roughly 26 and the Kd came to 1600 nM.

B7: 11H9.A1 antibody (antibody, human IgG1, kappa, V domains shown)
VH: EVQLVESGGGLVKPGGSLRLSCAASGFTFSSYSMNWVRQAPGKGLEWVSSISSSSSYIYYADSVKGRFTISRDNAKNSLYLQMNSLRAEDTAVYYCARLLWFGEIFDYWGQGTLVTVSS
VL: AIQLTQSPSSLSASVGDRVTITCRASQGISSALAWYQQKPGKAPKLLIYDASSLKSGVPSRFSGSGSGTDFTLTISSLQPEDFATYYCQQFNSYPITFGQGTRLEIKR
notes: Hybridoma antibody; also called 11H9.A4
In the case of B7, the EC50 was determined as 0.1 nM in test [1], 9 nM in test [13] and 0.7 nM in [4]. Moreover, the figures for the IC50 in test [12], in test [2] and in [14] were 54 nM, 0.1 nM and 1 nM, respectively.

B8: NKG2A.14 antibody (antibody, human IgG1, kappa, V domains shown)
VH: B6 VH with T112I
VL: B7 VL with S30Q, I96L
notes: IgG1.3f; also called 13F3.A4 VK-N30Q
B8 registered an IC50 in test [3] of 0.2 nM. Besides, the EC50 in test [4] turned out to be 0.1 nM.

B9: NKG2A.10 antibody (antibody, IgG1, V domains shown)
VH: B6 VH
VL: B7 VL with S30Q, I96L
notes: IgG1.3f; also called 13F3.A4 VH-I107T, VK-N30Q
For B9, the EC50 in test [6] is 1.3 nM; in [4], 0.1 nM. Also, the IC50 in test [3] stood at 0.05 nM.

B10: NKG2A.5 antibody (antibody, V domains shown)
VH: B7 VH
VL: B6 VL with L96I
notes: also called recombinant 11H9.A4
B10 yielded an IC50 in [3] of 0.3 nM. In test [4], this molecule registered a half-maximal effective concentration (EC50) of 0.3 nM.

B11: NKG2A.15 antibody (antibody, human IgG1, kappa)
heavy: EVQLVESGGGLVKPGGSLRLSCAASGFTFSSHSMNWVRQAPGKGLEWVSAISSSSSYIYYADSVKGRFTISRDNAKNSLYLQMNSLRAEDTAVYYCAREEWGLPFDYWGQGILVTVSSASTKGPSVFPLAPSSKSTSGGTAALGCLVKDYFPEPVTVSWNSGALTSGVHTFPAVLQSSGLYSLSSVVTVPSSSLGTQTYICNVNHKPSNTKVDKRVEPKSCDKTHTCPPCPAPEAEGAPSVFLFPPKPKDTLMISRTPEVTCVVVDVSHEDPEVKFNWYVDGVEVHNAKTKPREEQYNSTYRVVSVLTVLHQDWLNGKEYKCKVSNKALPAPIEKTISKAKGQPREPQVYTLPPSREEMTKNQVSLTCLVKGFYPSDIAVEWESNGQPENNYKTTPPVLDSDGSFFLYSKLTVDKSRWQQGNVFSCSVMHEALHNHYTQKSLSLSPGK
light: B3 light
notes: IgG1.3f; also called 13F3.A4 VK-N30P
B11 displayed an IC50 in test [3] of 0.1 nM. It took 0.1 nM to reach a half-maximal effect in [4] (EC50).

B12: NKG2A.12 antibody (antibody, human IgG1, kappa, V domains shown)
VH: B6 VH
VL: B7 VL with S30N, I96L
notes: IgG1.3f; also called 13F3.A4 VH-I107T
For B12, the EC50 in test [6] was determined as 1.2 nM; in test [4] it was 0.2 nM. Besides, in [3], the IC50 was determined as 0.1 nM.

The values above are taken from US20250101100A1 (Bristol-Myers Squibb, published 2025).
